Data taken from IntAct's records for PubMed 31515488.

B1: Beta-taxilin (Homo sapiens), Q8N3L3 (parent)
chain: MEANHSEQLSAERQSTPPGDSSSLPSHNGLEKEDGQDSPTPVQPPEKEASVHPDISEELNRQLEDIINTYGSAASTAGKEGSARASEQPENAESPDNEDGDCEETTEEAGREPVASGEPPTVKEPVSNKEQKLEKKILKGLGKEANLLMQNLNKLQTPEEKFDFLFKKYAELLDEHRTEQKKLKLLQKKQVQIQKEKDQLQGEHSRAILARSKLESLCRELQRHNKTLKEEALQRAREEEEKRKEITSHFQSTLTDIQGQIEQQSERNMKLCQENTELAEKLKSIIDQYELREEHLDKIFKHRELQQKLVDAKLEQAQEMMKEAEERHKREKEYLLNQAAEWKLQAKVLKEQETVLQAQLTLYSGRFEEFQSTLTKSNEVFATFKQEMDKTTKKMKKLEKDTATWKARFENCNKALLDMIEEKALRAKEYECFVMKIGRLENLCRALQEERNELHKKIRDAEISEKDDQSQHNSDEEPESNVSVDQEIDAEEVNSVQTAVKNLATAFMIIHHPESTPHQSKETQPEIGSSQESADAALKEPEQPPLIPSRDSESPLPPLTPQAEAEGGSDAEPPSKASNSPAGLGAETQCEGLPVGAQADQASWKPEAEASGQAPQAPTEASLQKMEADVPAPACAAEEHVAAMVPACEPSRQPPRAAAEELPVGASAGPQPRNVADTNLEGVD
partner: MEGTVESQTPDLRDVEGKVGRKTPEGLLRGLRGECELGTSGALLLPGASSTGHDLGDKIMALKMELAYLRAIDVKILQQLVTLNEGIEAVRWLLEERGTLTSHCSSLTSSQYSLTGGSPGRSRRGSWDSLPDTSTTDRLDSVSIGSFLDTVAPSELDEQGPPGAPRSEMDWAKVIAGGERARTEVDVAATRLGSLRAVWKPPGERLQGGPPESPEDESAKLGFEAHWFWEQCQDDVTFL
B2: Calcium-binding and coiled-coil domain-containing protein 2 (Homo sapiens), Q13137 (parent)
chain: MEETIKDPPTSAVLLDHCHFSQVIFNSVEKFYIPGGDVTCHYTFTQHFIPRRKDWIGIFRVGWKTTREYYTFMWVTLPIDLNNKSAKQQEVQFKAYYLPKDDEYYQFCYVDEDGVVRGASIPFQFRPENEEDILVVTTQGEVEEIEQHNKELCKENQELKDSCISLQKQNSDMQAELQKKQEELETLQSINKKLELKVKEQKDYWETELLQLKEQNQKMSSENEKMGIRVDQLQAQLSTQEKEMEKLVQGDQDKTEQLEQLKKENDHLFLSLTEQRKDQKKLEQTVEQMKQNETTAMKKQQELMDENFDLSKRLSENEIICNALQRQKERLEGENDLLKRENSRLLSYMGLDFNSLPYQVPTSDEGGARQNPGLAYGNPYSGIQESSSPSPLSIKKCPICKADDICDHTLEQQQMQPLCFNCPICDKIFPATEKQIFEDHVFCHSL
partner: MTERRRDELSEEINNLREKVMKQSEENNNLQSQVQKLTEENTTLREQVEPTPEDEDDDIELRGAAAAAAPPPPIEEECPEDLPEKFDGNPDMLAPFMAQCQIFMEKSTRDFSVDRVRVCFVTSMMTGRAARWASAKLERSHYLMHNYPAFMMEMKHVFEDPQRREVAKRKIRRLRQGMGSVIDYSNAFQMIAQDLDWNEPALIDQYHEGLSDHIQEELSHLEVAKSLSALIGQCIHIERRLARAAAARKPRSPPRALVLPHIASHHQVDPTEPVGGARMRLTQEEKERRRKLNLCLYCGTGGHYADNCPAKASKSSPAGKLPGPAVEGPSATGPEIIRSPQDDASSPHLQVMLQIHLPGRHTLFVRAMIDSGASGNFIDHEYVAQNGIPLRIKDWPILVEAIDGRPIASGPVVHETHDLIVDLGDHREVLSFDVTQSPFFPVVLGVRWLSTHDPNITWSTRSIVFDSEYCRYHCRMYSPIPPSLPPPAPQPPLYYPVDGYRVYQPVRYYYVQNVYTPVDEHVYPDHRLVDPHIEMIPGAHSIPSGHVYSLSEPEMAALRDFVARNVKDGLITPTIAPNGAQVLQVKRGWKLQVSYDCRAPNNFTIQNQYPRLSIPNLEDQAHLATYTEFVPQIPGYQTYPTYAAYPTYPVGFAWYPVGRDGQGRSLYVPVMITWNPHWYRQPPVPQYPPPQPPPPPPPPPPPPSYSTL
B3: Tuftelin-interacting protein 11 (Homo sapiens), Q9UBB9 (parent)
chain: MSLSHLYRDGEGRIDDDDDERENFEITDWDLQNEFNPNRQRHWQTKEEATYGVWAERDSDDERPSFGGKRARDYSAPVNFISAGLKKGAAEEAELEDSDDEEKPVKQDDFPKDFGPRKLKTGGNFKPSQKGFAGGTKSFMDFGSWERHTKGIGQKLLQKMGYVPGRGLGKNAQGIINPIEAKQRKGKGAVGAYGSERTTQSMQDFPVVDSEEEAEEEFQKELSQWRKDPSGSKKKPKYSYKTVEELKAKGRISKKLTAPQKELSQVKVIDMTGREQKVYYSYSQISHKHNVPDDGLPLQSQQLPQSGKEAKAPGFALPELEHNLQLLIDLTEQEIIQNDRQLQYERDMVVNLFHELEKMTEVLDHEERVISNLSKVLEMVEECERRMQPDCSNPLTLDECARIFETLQDKYYEEYRMSDRVDLAVAIVYPLMKEYFKEWDPLKDCTYGTEIISKWKSLLENDQLLSHGGQDLSADAFHRLIWEVWMPFVRNIVTQWQPRNCDPMVDFLDSWVHIIPVWILDNILDQLIFPKLQKEVENWNPLTDTVPIHSWIHPWLPLMQARLEPLYSPIRSKLSSALQKWHPSDSSAKLILQPWKDVFTPGSWEAFMVKNIVPKLGMCLGELVINPHQQHMDAFYWVIDWEGMISVSSLVGLLEKHFFPKWLQVLCSWLSNSPNYEEITKWYLGWKSMFSDQVLAHPSVKDKFNEALDIMNRAVSSNVGAYMQPGARENIAYLTHTERRKDFQYEAMQERREAENMAQRGIGVAASSVPMNFKDLIETKAEEHNIVFMPVIGKRHEGKQLYTFGRIVIYIDRGVVFVQGEKTWVPTSLQSLIDMAK
partner: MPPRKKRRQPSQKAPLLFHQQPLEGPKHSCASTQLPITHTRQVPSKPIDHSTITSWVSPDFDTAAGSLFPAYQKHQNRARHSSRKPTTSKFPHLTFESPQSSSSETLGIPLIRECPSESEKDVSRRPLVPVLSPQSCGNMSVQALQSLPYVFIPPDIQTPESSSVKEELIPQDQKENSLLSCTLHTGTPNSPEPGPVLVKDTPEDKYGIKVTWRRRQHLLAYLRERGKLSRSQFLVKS
B4: Carboxy-terminal domain RNA polymerase II polypeptide A small phosphatase 1 (Homo sapiens), Q9GZU7 (parent)
chain: MDSSAVITQISKEEARGPLRGKGDQKSAASQKPRSRGILHSLFCCVCRDDGEALPAHSGAPLLVEENGAIPKQTPVQYLLPEAKAQDSDKICVVIDLDETLVHSSFKPVNNADFIIPVEIDGVVHQVYVLKRPHVDEFLQRMGELFECVLFTASLAKYADPVADLLDKWGAFRARLFRESCVFHRGNYVKDLSRLGRDLRRVLILDNSPASYVFHPDNAVPVASWFDNMSDTELHDLLPFFEQLSRVDDVYSVLRQPRPGS

Variants of: B1
Settings: with lura1_human LURAP1, Q96LR2

Variant | effect of a mutation on the interaction
T523I | with no effect
T361A | with no effect

Variants of: B2
Settings: with peg10_human PEG10, Q86TG7

Variant | effect of a mutation on the interaction
MEETIKDPPTSAVLLDHCHFSQVIFNSVEKFYIPGGDVTCHYTFTQHFIPRRKDWIGIFRVGWKTTREYYTFMWVTLPIDLNNKSAKQQEVQFKAYYLPKDDEYYQFCYVDEDGVVRGASIPFQFRPENEEDILVVTTQGEVEEIEQHNKELCKENQELKDSCISLQKQNSDMQAELQKKQEELETLQSINKKLELKVKEQKDYWETELLQLKEQNQKMSSENEKMGIRVDQLQAQLSTQEKEMEKLVQGDQDKTEQLEQLKKENDHLFLSLAEQRKDQKKLEQTVEQMKQNETTAMKKQQELMDENFDLSKRLSENEIICNALQRQKERLEGENDLLKRENSRLLSYMGLDFNSLPYQVPTSDEGGARQNPGLAYGNPYSGIQESSSPSPLSIKKCPICKADDICDHTLEQQQMQPLCFNCPICDKIFPATEKQIFEDHVFCHSL [T273A] | with no effect
MEETIKDPPTSAVLLDHCHFSQVIFNSVEKFYIPGGDVTCHYTFTQHFIPRRKDWIGIFRVGWKTTREYYTFMWVTLPIDLNNKSAKQQEVQFKAYYLPKDDEYYQFCYVDEDGVVRGASIPFQFRPENEEDILVVTTQGEVEEIEQHNKELCKENQELKDSCISLQKQNSDMQAELQKKQEELETLQSINKKLELKVKEQKDYWETELLQLKEQNQKMSSENEKMGIRVDQLQAQLSTQEKEMEKLVQGDQDKTEQLEQLKKENDHLFLSLTEQRKDQKKLEQTVEQMKQNETTAMKKQQELMDENFDLSKRLSENEIICNALQRQKERLEGENDLLKRENSRLLSYMGLDFNSLPYQVPTSDEGGARQNPGLAYGNPYSGIQESSSASPLSIKKCPICKADDICDHTLEQQQMQPLCFNCPICDKIFPATEKQIFEDHVFCHSL [P389A] | with no effect

Variants of: B3
Settings: with rhno1_human RHNO1, Q9BSD3

Variant | effect of a mutation on the interaction
S688L | with no effect
R8Q | with no effect

Variants of: B4
Settings: with mbp_human MBP

Variant | effect of a mutation on the interaction
MDSSAVITQISKEEARGPLRGKGDQKSAASQKPRSRGILHSLFCCVCRDDGEALPTHSGAPLLVEENGAIPKQTPVQYLLPEAKAQDSDKICVVIDLDETLVHSSFKPVNNADFIIPVEIDGVVHQVYVLKRPHVDEFLQRMGELFECVLFTASLAKYADPVADLLDKWGAFRARLFRESCVFHRGNYVKDLSRLGRDLRRVLILDNSPASYVFHPDNAVPVASWFDNMSDTELHDLLPFFEQLSRVDDVYSVLRQPRPGS [A56T] | with no effect
